{
  "source": "patent US20090131309A1",
  "about": "“ICA512 COUPLES INSULIN SECRETION AND GENE EXPRESSION IN BETA-CELLS” (Technische Universität Dresden Medizinizche Fakultät Carl …, priority 2004, published 2009)",
  "key": {"INS-1 cells": {"tested_on": "INS-1 cells", "test": "Uridine incorporation in INS-1 cells", "assay_type": "cell-based, rat", "details": "5 μg/ml actinomycin D; ICA512-CCF-GFP-transfected INS-1 cells"}, "pro-ICA512": {"tested_on": "pro-ICA512", "details": "cells stimulated for 2 hours; reference 8; cited from earlier work"}, "[1]": {"molecular_target": "T1, in-vitro transcribed and translated [^35S]-labeled PIASy (mouse, UniProt Q9JM05 1-507, [35S]-methionine label)", "T1 construct": "The mouse PIASy cDNA in pcDNA3.1 is the only untagged PIASy construct described; also called [^35S]-PIASy; [^35S]-methionine-PIASy", "T1 sequence (looked up)": "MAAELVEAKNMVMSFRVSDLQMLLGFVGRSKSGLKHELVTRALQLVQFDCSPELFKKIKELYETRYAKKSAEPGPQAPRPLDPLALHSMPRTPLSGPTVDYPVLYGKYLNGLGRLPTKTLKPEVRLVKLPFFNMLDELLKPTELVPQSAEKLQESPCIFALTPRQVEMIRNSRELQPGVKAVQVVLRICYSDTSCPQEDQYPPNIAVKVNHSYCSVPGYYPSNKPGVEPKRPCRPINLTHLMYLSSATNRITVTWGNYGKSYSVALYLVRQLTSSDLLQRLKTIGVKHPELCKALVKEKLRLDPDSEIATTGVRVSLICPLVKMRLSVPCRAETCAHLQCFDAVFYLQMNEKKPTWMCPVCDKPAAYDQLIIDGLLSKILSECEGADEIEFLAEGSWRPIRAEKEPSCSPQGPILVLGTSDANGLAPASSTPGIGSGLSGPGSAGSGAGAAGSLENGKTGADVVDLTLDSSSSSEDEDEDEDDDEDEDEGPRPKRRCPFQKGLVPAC", "test": "GST pull-down, SDS-PAGE and autoradiography"}, "STAT5b [2]": {"molecular_target": "T2, STAT5b (rat, UniProt P52632 1-786)", "T2 sequence (looked up)": "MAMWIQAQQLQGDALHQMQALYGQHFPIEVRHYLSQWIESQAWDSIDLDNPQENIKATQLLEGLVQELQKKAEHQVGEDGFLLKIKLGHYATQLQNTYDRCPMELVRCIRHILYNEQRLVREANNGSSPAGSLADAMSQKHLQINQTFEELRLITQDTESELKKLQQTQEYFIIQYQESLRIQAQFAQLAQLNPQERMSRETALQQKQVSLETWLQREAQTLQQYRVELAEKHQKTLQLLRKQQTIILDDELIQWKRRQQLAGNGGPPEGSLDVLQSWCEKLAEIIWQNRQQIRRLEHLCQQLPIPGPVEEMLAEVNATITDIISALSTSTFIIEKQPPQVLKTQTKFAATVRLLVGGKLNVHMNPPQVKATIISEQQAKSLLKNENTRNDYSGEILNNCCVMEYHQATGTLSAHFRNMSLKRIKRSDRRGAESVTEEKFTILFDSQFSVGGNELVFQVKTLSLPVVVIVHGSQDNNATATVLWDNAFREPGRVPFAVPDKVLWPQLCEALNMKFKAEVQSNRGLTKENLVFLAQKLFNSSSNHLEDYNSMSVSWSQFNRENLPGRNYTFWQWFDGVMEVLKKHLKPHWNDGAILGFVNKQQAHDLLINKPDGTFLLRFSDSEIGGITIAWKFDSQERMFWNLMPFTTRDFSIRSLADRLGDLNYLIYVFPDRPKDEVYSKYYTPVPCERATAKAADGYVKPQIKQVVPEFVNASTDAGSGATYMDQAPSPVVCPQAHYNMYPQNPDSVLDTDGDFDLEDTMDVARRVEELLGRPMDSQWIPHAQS", "test": "cell-based or functional assay"}, "STAT5b [3]": {"molecular_target": "T2, STAT5b", "test": "anti-GFP immunoprecipitation from total INS-1 extracts, immunoblot for STAT5b", "protocol": "Immunoprecipitation. INS-1 cells were transiently transfected With one or more of the following constructs: GFP, ICA512-CCF-GFP, ICA512-CCF(K/A⁷⁵⁴)-GFP, SUMO-1 and HA-SUMO-1. Anti-GFP IgGs were used for immunoprecipitations from total or cytosolic extracts. Immunoprecipitates were immunoblotted with anti-STAT5b, anti-PY-STAT5, anti-GFP or anti-HA antibodies. 600 μg and 200 μg protein were used as starting material for immunopreciptation of sumoylated ICA512 and STAT5, respectively."}, "PIASy-YFP": {"molecular_target": "T3, PIASy-YFP (mouse, UniProt Q9JM05 2-507)", "T3 construct": "whole, on cells; Transiently expressed in INS-1 cells; nuclear; not shown: YFP encoded by pEYFP-N2 (Clontech), fused at the C-terminus", "T3 sequence (looked up)": "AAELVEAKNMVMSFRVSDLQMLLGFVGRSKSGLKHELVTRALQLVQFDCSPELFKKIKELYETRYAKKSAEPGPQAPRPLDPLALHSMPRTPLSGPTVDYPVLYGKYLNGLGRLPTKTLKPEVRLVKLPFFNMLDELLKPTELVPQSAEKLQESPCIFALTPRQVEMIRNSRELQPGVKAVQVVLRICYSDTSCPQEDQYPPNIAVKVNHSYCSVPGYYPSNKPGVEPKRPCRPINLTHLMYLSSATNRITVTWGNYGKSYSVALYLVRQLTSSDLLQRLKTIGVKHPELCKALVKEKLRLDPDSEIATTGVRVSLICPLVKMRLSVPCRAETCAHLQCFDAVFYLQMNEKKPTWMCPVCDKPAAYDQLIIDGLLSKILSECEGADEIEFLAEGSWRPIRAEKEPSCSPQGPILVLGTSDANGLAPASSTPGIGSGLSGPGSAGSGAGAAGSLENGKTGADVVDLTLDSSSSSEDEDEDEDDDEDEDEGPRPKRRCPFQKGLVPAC", "test": "FRET by acceptor photobleaching in nuclei of co-transfected INS-1 cells", "protocol": "FRET analysis. INS-1 cells transiently co-transfected with ICA512-CFP, PIASy-YFP, Ism4-YFP and Ism4-CFP were incubated either in resting or stimulating buffer for 90 minutes. Following fixation in 2% paraformahaldehyde, cells were imaged with an inverted […] confocal microscope (Zeiss) using a Plan-Apochromat 100× 1.4 oil DIC objective, The pinhole diameter was set between 1.0 and 1.25 Airy-Unit. […] 458 nm and 514 nm laser lines were used to excite CFP and YFP, respectively. CFP images were acquired with a 458 nm dichroic mirror and a bandpass filter of 475-495, while YFP fluorescence was collected with a 514 nm dichroic mirror and a bandpass filter of 530-600 nm. FRET was assessed by measuring the dequenching of CFP during the photobleaching of YFP performed with the 514 nm laser line at 70% power and for six cycles of 30 sec. each. Mean fluorescence of CFP and YFP were determined by tracing the nuclear perimeter of the cell using the “region of interest” software function. Fluorescence intensity of CFP after photobleaching was normalized to 100% at time 0. In each experiment, 6-9 fields for each slide were photobleached and recorded. Each experiment was independently performed two times."}},
  "note": "Starred links: 1 amine or outer side, 2 acyl side, 3 side chain; linkers in the order of their positions; H or OH if unused. Positions of bridges follow the written chain, without caps; N, C: chain ends. Non-standard residues stand in square brackets, D forms with d. Residues, ends and D or L forms follow the SMILES beside them. Chains are numbered I, II in the order given. Actinocin(9to1) = Cc1c2oc3c(C)ccc(C(=O)[*:1])c3nc-2c(C(=O)[*:2])c(N)c1=O; NMeV = CN[C@H](C(=O)O)C(C)C; Sar = CNCC(=O)O",
  "data": [
    {"molecule": "Cc1c2oc3c(C)ccc(C(=O)N[C@@H]4C(=O)N[C@H](C(C)C)C(=O)N5CCC[C@H]5C(=O)N(C)CC(=O)N(C)[C@@H](C(C)C)C(=O)O[C@@H]4C)c3nc-2c(C(=O)N[C@@H]2C(=O)N[C@H](C(C)C)C(=O)N3CCC[C@H]3C(=O)N(C)CC(=O)N(C)[C@@H](C(C)C)C(=O)O[C@@H]2C)c(N)c1=O", "note": "[actinomycin D, reference compound] (I: T[dV]P[Sar][NMeV] / II: T[dV]P[Sar][NMeV]; ester I:1-I:C, II:1-II:C; linker I:N-II:N via Actinocin(9to1))", "values": [
      {"measurement": "effect on the increase of 3H-uridine incorporation", "setting": "INS-1 cells", "result": "abolished"},
      {"measurement": "rapid induction of pro-ICA512", "setting": "pro-ICA512", "result": "did not prevent the rapid induction of pro-ICA512"}
    ]},
    {"molecule": "GST-ICA512 (800-979) (other, Bacterially expressed; not shown: glutathione S-transferase (GST) fusion partner) ESGCTVIVMLTPLVEDGVKQCDRYWPDEGASLYHVYEVNLVSEHIWCEDFLVRSFYLKNVQTQETRTLTQFHFLSWPAEGTPASTRPLLDFRRKVNKCYRGRSCPIIVHCSDGAGRTGTYILIDMVLNRMAKGVKEIDIAATLEHVRDQRPGLVRSKDQFEFALTAVAEEVNAILKALPQ", "values": [
      {"measurement": "binding result", "setting": "[1]", "result": "no binding"}
    ]},
    {"molecule": "ICA512-CCF-GFP (other, not shown: large carriers) SQFSDAAQASPSSHSSTPSWCEEPAQANMDISTGHMILAYMEDHLRNRDRLAKEWQALCAYQAEPNTCATAQGEGNIKKNRHPDFLPYDHARIKLKVESSPSRSDYINASPIIEHDPRMPAYIATQGPLSHTIADFWQMVWESGCTVIVMLTPLVEDGVKQCDRYWPDEGASLYHVYEVNLVSEHIWCEDFLVRSFYLKNVQTQETRTLTQFHFLSWPAEGTPASTRPLLDFRRKVNKCYRGRSCPIIVHCSDGAGRTGTYILIDMVLNRMAKGVKEIDIAATLEHVRDQRPGLVRSKDQFEFALTAVAEEVNAILKALPQ", "values": [
      {"measurement": "luciferase activity of the STAT reporter 8GLE-CAS-FL in hGH-stimulated INS-1 cells, relative to GFP cells", "setting": "STAT5b [2]", "result": "> 500", "unit": "%"}
    ]},
    {"molecule": "ICA512-CCF(K/A^754)-GFP (other, Expressed in INS-1 cells; not shown: GFP encoded by pEGFP-N1 (Clontech), fused at the C-terminus) SQFSDAAQASPSSHSSTPSWCEEPAQANMDISTGHMILAYMEDHLRNRDRLAKEWQALCAYQAEPNTCATAQGEGNIKKNRHPDFLPYDHARIKLAVESSPSRSDYINASPIIEHDPRMPAYIATQGPLSHTIADFWQMVWESGCTVIVMLTPLVEDGVKQCDRYWPDEGASLYHVYEVNLVSEHIWCEDFLVRSFYLKNVQTQETRTLTQFHFLSWPAEGTPASTRPLLDFRRKVNKCYRGRSCPIIVHCSDGAGRTGTYILIDMVLNRMAKGVKEIDIAATLEHVRDQRPGLVRSKDQFEFALTAVAEEVNAILKALPQ", "values": [
      {"measurement": "binding result", "setting": "STAT5b [3]", "result": "binds"}
    ]},
    {"molecule": "ICA512-CFP (other, The FRET was read in the nucleus, so the partner of PIASy-YFP there is the cleaved cytoplasmic fragment ICA512-CCF-CFP; Its N-terminal limit in cells is not determined; also called ICA512-CCF-CFP (its cleaved cytoplasmic fragment in the nucleus); not shown: CFP encoded by pECFP-N1 (Clontech), fused at the C-terminus) SQFSDAAQASPSSHSSTPSWCEEPAQANMDISTGHMILAYMEDHLRNRDRLAKEWQALCAYQAEPNTCATAQGEGNIKKNRHPDFLPYDHARIKLKVESSPSRSDYINASPIIEHDPRMPAYIATQGPLSHTIADFWQMVWESGCTVIVMLTPLVEDGVKQCDRYWPDEGASLYHVYEVNLVSEHIWCEDFLVRSFYLKNVQTQETRTLTQFHFLSWPAEGTPASTRPLLDFRRKVNKCYRGRSCPIIVHCSDGAGRTGTYILIDMVLNRMAKGVKEIDIAATLEHVRDQRPGLVRSKDQFEFALTAVAEEVNAILKALPQ", "values": [
      {"measurement": "fold increase of the recovery of ICA512-CFP signal after photobleaching of PIASy-YFP (FRET), stimulated against resting cells", "setting": "PIASy-YFP", "result": "~5", "unit": "fold"}
    ]}
  ]
}
